Test results as given in US20230416410A1.

Columns and labels:
[1] = target: recombinant bovine FcRn (bovine) (UniProt F6R592); experiment: SPR Biacore, bFcRn on SA sensor, pH 6, 25 C
[2] = target: recombinant bovine Fcg2R (bovine); experiment: SPR Biacore, bFcg2R amine-coupled on CM5, pH 7.4, 15 C
[3] = target: recombinant bovine Fcg2R (bovine); experiment: SPR Biacore, bFcg2R amine-coupled on CM5; against bIgG2a wildtype mAb
[4] = target: recombinant bovine FcRn (bovine) (UniProt F6R592); experiment: SPR Biacore, bFcRn, pH 6; against bIgG3a wildtype mAb

Chain of recombinant bovine FcRn (bovine) (chain, as listed by the source, chain 1 of 2): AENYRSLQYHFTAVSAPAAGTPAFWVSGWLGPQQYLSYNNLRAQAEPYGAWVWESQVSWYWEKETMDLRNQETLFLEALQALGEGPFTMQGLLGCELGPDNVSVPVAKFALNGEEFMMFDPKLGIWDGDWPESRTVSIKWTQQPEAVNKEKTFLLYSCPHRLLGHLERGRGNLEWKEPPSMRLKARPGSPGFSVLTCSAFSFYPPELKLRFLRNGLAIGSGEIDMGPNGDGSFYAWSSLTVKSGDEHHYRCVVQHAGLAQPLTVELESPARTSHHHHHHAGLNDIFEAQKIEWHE
Chain of recombinant bovine FcRn (bovine) (P01888 21-118, chain 2 of 2): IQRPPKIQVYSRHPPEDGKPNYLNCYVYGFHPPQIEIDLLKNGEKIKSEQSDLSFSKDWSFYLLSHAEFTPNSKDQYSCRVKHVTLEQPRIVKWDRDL
Chain of recombinant bovine Fcg2R (bovine) (main, as listed by the source): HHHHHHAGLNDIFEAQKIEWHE

Kd [1]	Binder	also measured
0.579 nM	bIgG2a_L432A mAb (antibody, part only; not given: variable domains, not shown: another chain or arm of the molecule) constant: ASTTAPKVYPLTSCCGDKSSSRVTLGCLVSSYMPEPVTVTWNSGALKSGVHTFPAVLQSSGLYSLSSMVTVPGSSSGQTFTCNVAHPASSTKVDKAVGVSSDCSKPNNQHCVREPSVFIFPPKPKDTLMITGTPEVTCVVVNVGHDNPEVQFSWFVDDVEVHTARTKPREEQFNSTYRVVSALPIQHQDWTGGKEFKCKVNIKGLSASIVRIISRSKGPAREPQVYVLDPPKEELSKSTVSVTCMVIGFYPEDVDVEWQRDRQTESEDKYRTTPPQLDADRSYFLYSKLRVDRNSWQRGDTYTCVVMHEAAHNHYMQKSTSKSAGK	
1.7 nM	bIgG2a_L432A_N434A mAb (antibody, part only; not given: variable domains, not shown: another chain or arm of the molecule) constant: ASTTAPKVYPLTSCCGDKSSSRVTLGCLVSSYMPEPVTVTWNSGALKSGVHTFPAVLQSSGLYSLSSMVTVPGSSSGQTFTCNVAHPASSTKVDKAVGVSSDCSKPNNQHCVREPSVFIFPPKPKDTLMITGTPEVTCVVVNVGHDNPEVQFSWFVDDVEVHTARTKPREEQFNSTYRVVSALPIQHQDWTGGKEFKCKVNIKGLSASIVRIISRSKGPAREPQVYVLDPPKEELSKSTVSVTCMVIGFYPEDVDVEWQRDRQTESEDKYRTTPPQLDADRSYFLYSKLRVDRNSWQRGDTYTCVVMHEAAHAHYMQKSTSKSAGK	Kd [2]: 59.3 nM; Fcg2R KD reduction from WT [3]: 4 fold
3.03 nM	bIgG2a_L432A_M437A mAb (antibody, part only; not given: variable domains, not shown: another chain or arm of the molecule) constant: ASTTAPKVYPLTSCCGDKSSSRVTLGCLVSSYMPEPVTVTWNSGALKSGVHTFPAVLQSSGLYSLSSMVTVPGSSSGQTFTCNVAHPASSTKVDKAVGVSSDCSKPNNQHCVREPSVFIFPPKPKDTLMITGTPEVTCVVVNVGHDNPEVQFSWFVDDVEVHTARTKPREEQFNSTYRVVSALPIQHQDWTGGKEFKCKVNIKGLSASIVRIISRSKGPAREPQVYVLDPPKEELSKSTVSVTCMVIGFYPEDVDVEWQRDRQTESEDKYRTTPPQLDADRSYFLYSKLRVDRNSWQRGDTYTCVVMHEAAHNHYAQKSTSKSAGK	
1.04 nM	bIgG2a_N434A mAb (antibody, part only; not given: variable domains, not shown: another chain or arm of the molecule) constant: ASTTAPKVYPLTSCCGDKSSSRVTLGCLVSSYMPEPVTVTWNSGALKSGVHTFPAVLQSSGLYSLSSMVTVPGSSSGQTFTCNVAHPASSTKVDKAVGVSSDCSKPNNQHCVREPSVFIFPPKPKDTLMITGTPEVTCVVVNVGHDNPEVQFSWFVDDVEVHTARTKPREEQFNSTYRVVSALPIQHQDWTGGKEFKCKVNIKGLSASIVRIISRSKGPAREPQVYVLDPPKEELSKSTVSVTCMVIGFYPEDVDVEWQRDRQTESEDKYRTTPPQLDADRSYFLYSKLRVDRNSWQRGDTYTCVVMHEALHAHYMQKSTSKSAGK	
0.59 nM	bIgG2a_M437A mAb (antibody, part only; not given: variable domains, not shown: another chain or arm of the molecule) constant: ASTTAPKVYPLTSCCGDKSSSRVTLGCLVSSYMPEPVTVTWNSGALKSGVHTFPAVLQSSGLYSLSSMVTVPGSSSGQTFTCNVAHPASSTKVDKAVGVSSDCSKPNNQHCVREPSVFIFPPKPKDTLMITGTPEVTCVVVNVGHDNPEVQFSWFVDDVEVHTARTKPREEQFNSTYRVVSALPIQHQDWTGGKEFKCKVNIKGLSASIVRIISRSKGPAREPQVYVLDPPKEELSKSTVSVTCMVIGFYPEDVDVEWQRDRQTESEDKYRTTPPQLDADRSYFLYSKLRVDRNSWQRGDTYTCVVMHEALHNHYAQKSTSKSAGK	
2.31 nM	bIgG2a_N434A_M437A mAb (antibody, part only; not given: variable domains, not shown: another chain or arm of the molecule) constant: ASTTAPKVYPLTSCCGDKSSSRVTLGCLVSSYMPEPVTVTWNSGALKSGVHTFPAVLQSSGLYSLSSMVTVPGSSSGQTFTCNVAHPASSTKVDKAVGVSSDCSKPNNQHCVREPSVFIFPPKPKDTLMITGTPEVTCVVVNVGHDNPEVQFSWFVDDVEVHTARTKPREEQFNSTYRVVSALPIQHQDWTGGKEFKCKVNIKGLSASIVRIISRSKGPAREPQVYVLDPPKEELSKSTVSVTCMVIGFYPEDVDVEWQRDRQTESEDKYRTTPPQLDADRSYFLYSKLRVDRNSWQRGDTYTCVVMHEALHAHYAQKSTSKSAGK	
6.96 nM	bIgG2a_L432A_N434A_M437A mAb (antibody, part only; not given: variable domains, not shown: another chain or arm of the molecule) constant: ASTTAPKVYPLTSCCGDKSSSRVTLGCLVSSYMPEPVTVTWNSGALKSGVHTFPAVLQSSGLYSLSSMVTVPGSSSGQTFTCNVAHPASSTKVDKAVGVSSDCSKPNNQHCVREPSVFIFPPKPKDTLMITGTPEVTCVVVNVGHDNPEVQFSWFVDDVEVHTARTKPREEQFNSTYRVVSALPIQHQDWTGGKEFKCKVNIKGLSASIVRIISRSKGPAREPQVYVLDPPKEELSKSTVSVTCMVIGFYPEDVDVEWQRDRQTESEDKYRTTPPQLDADRSYFLYSKLRVDRNSWQRGDTYTCVVMHEAAHAHYAQKSTSKSAGK	
30.2 nM	bIgG3a wildtype mAb (antibody, part only; not given: variable domains, not shown: another chain or arm of the molecule) constant: ASTTAPKVYPLASSCGDTSSSTVTLGCLVSSYMPEPVTVTWNSGALKSGVHTFPAVRQSSGLYSLSSMVTVPASSSETQTFTCNVAHPASSTKVDKAVTARRPVPTTPKTTIPPGKPTTPKSEVEKTPCQCSKCPEPLGGLSVFIFPPKPKDTLTISGTPEVTCVVVDVGQDDPEVQFSWFVDDVEVHTARTKPREEQFNSTYRVVSALRIQHQDWLQGKEFKCKVNNKGLPAPIVRTISRTKGQAREPQVYVLAPPREELSKSTLSLTCLITGFYPEEIDVEWQRNGQPESEDKYHTTAPQLDADGSYFLYSKLRVNKSSWQEGDHYTCAVMHEALRNHYKEKSISRSPGK	
9.14 nM	bIgG3a_R433H mutant mAb (antibody, part only; not given: variable domains, not shown: another chain or arm of the molecule) constant: ASTTAPKVYPLASSCGDTSSSTVTLGCLVSSYMPEPVTVTWNSGALKSGVHTFPAVRQSSGLYSLSSMVTVPASSSETQTFTCNVAHPASSTKVDKAVTARRPVPTTPKTTIPPGKPTTPKSEVEKTPCQCSKCPEPLGGLSVFIFPPKPKDTLTISGTPEVTCVVVDVGQDDPEVQFSWFVDDVEVHTARTKPREEQFNSTYRVVSALRIQHQDWLQGKEFKCKVNNKGLPAPIVRTISRTKGQAREPQVYVLAPPREELSKSTLSLTCLITGFYPEEIDVEWQRNGQPESEDKYHTTAPQLDADGSYFLYSKLRVNKSSWQEGDHYTCAVMHEALHNHYKEKSISRSPGK	fold higher affinity than bIgG3a wildtype [4]: 5 fold
31.4 nM	bIgG1a mAb (antibody, part only; not given: variable domains, not shown: another chain or arm of the molecule) constant: ASTTAPKVYPLSSCCGDKSSSTVTLGCLVSSYMPEPVTVTWNSGALKSGVHTFPAVLQSSGLYSLSSMVTVPGSTSGTQTFTCNVAHPASSTKVDKAVDPRCKTTCDCCPPPELPGGPSVFIFPPKPKDTLTISGTPEVTCVVVDVGHDDPEVKFSWFVDDVEVNTATTKPREEQFNSTYRVVSALRIQHQDWTGGKEFKCKVHNEGLPAPIVRTISRTKGPAREPQVYVLAPPQEELSKSTVSLTCMVTSFYPDYIAVEWQRNGQPESEDKYGTTPPQLDADGSYFLYSRLRVDRNSWQEGDTYTCVVMHEALHNHYTQKSTSKSAGK	
